# Results: PMC5473807, “Distribution and kinetics of the Kv1.3-blocking peptide HsTX1[R14A] in experimental rats” (Scientific Reports, 2017)
# Where two headings read alike, the source gives them in different places.
# Test: In vivo biodistribution by organ and tissue extraction
# Parameters: species or system male Wistar rats
# Conditions: for SUV at 5 min / tissue uptake dose at 5 min / SUV at 1 h / tissue uptake dose at 1 h / SUV at 4 h / tissue uptake dose at 4 h / SUV at 24 h / tissue uptake dose at 24 h / SUV at 48 h / tissue uptake dose at 48 h: male, Wistar, total radioactivity, rat, mean ± SD; for SUV at 5 min / tissue uptake dose at 5 min: 5 min p.i.; for SUV at 1 h / tissue uptake dose at 1 h: 60 min p.i.; for SUV at 4 h / tissue uptake dose at 4 h: 240 min p.i.; for SUV at 24 h / tissue uptake dose at 24 h: 1440 min p.i.; for SUV at 48 h / tissue uptake dose at 48 h: 2880 min p.i.
# Protocol: The present study includes data obtained from a total of 50 animals. Four animals (body weight 227 ± 10 g) for each time point were injected intravenously into a tail vein or subcutaneously with approximately 0.3 MBq ([…]) [^64Cu]Cu-NOTA-HsTX1[R14A] conjugate in 0.5 mL electrolyte solution E-153 (Serumwerk Bernburg, Germany). Animals were euthanised at 5, 60, 240, 1440 and 2880 min post-injection. Blood and the major organs were collected, weighed, and counted in a cross-calibrated γ-counter (Isomed 1000, Isomed GmbH, Dresden) and Wallac WIZARD Automatic Gamma Counter (PerkinElmer, Germany). The radioactivity of the tissue samples was decay-corrected and calibrated by comparing the counts in tissue with the counts in aliquots of the injected radiotracer that had been measured in the γ-counter at the same time. The activity in the selected organs was expressed as percent-injected dose per organ (% ID) and the activity concentration in tissues and organs as standardised uptake value (SUV). Values are quoted as mean ± standard error of mean (SEM) for each group of four animals.
# [1] = Harderian gland, iv, 0.3 MBq, i.v., n=4, read-out: Harderian gl. SUV
# [2] = Harderian gland, iv, 0.3 MBq, i.v., n=4, read-out: Harderian gl. activity amount
# [3] = Harderian gland, iv, 0.3 MBq, i.v., n=8, read-out: Harderian gl. SUV
# [4] = Harderian gland, iv, 0.3 MBq, i.v., n=8, read-out: Harderian gl. activity amount
# [5] = Harderian gland, sc, 0.3 MBq, s.c., n=4, read-out: Harderian gl. SUV
# [6] = Harderian gland, sc, 0.3 MBq, s.c., n=4, read-out: Harderian gl. activity amount
# [7] = adrenals, iv, 0.3 MBq, i.v., n=4, read-out: Adrenals SUV
# [8] = adrenals, iv, 0.3 MBq, i.v., n=4, read-out: Adrenals activity amount
# [9] = adrenals, iv, 0.3 MBq, i.v., n=8, read-out: Adrenals SUV
# [10] = adrenals, iv, 0.3 MBq, i.v., n=8, read-out: Adrenals activity amount
# [11] = adrenals, sc, 0.3 MBq, s.c., n=4, read-out: Adrenals SUV
# [12] = adrenals, sc, 0.3 MBq, s.c., n=4, read-out: Adrenals activity amount
# [13] = blood, sc, s.c., n=4, read-out: Blood SUV
# [14] = brain, iv, 0.3 MBq, i.v., n=4, read-out: Brain SUV
# [15] = brain, iv, 0.3 MBq, i.v., n=4, read-out: Brain activity amount
# [16] = brain, iv, 0.3 MBq, i.v., n=8, read-out: Brain SUV
# [17] = brain, iv, 0.3 MBq, i.v., n=8, read-out: Brain activity amount
# [18] = brain, sc, 0.3 MBq, s.c., n=4, read-out: Brain SUV
# [19] = brain, sc, 0.3 MBq, s.c., n=4, read-out: Brain activity amount
# [20] = carcass, iv, 0.3 MBq, i.v., n=4, read-out: Carcass activity amount
# [21] = carcass, iv, 0.3 MBq, i.v., n=8, read-out: Carcass activity amount
# [22] = carcass, sc, 0.3 MBq, s.c., n=4, read-out: Carcass activity amount
# [23] = femur, iv, 0.3 MBq, i.v., n=4, read-out: Femur SUV
# [24] = femur, iv, 0.3 MBq, i.v., n=4, read-out: Femur activity amount
# [25] = femur, iv, 0.3 MBq, i.v., n=8, read-out: Femur SUV
# [26] = femur, iv, 0.3 MBq, i.v., n=8, read-out: Femur activity amount
smiles,measurement,setting,value
"CSCC[C@@H]1NC(=O)[C@@H]2CSSC[C@H](NC(=O)[C@H](CO)NC(=O)[C@H](C)NC(=O)COCCOCCNC(=O)CN3CCN(CC(=O)O)CCN(CC(=O)O)CC3)C(=O)N[C@@H](CCCNC(=N)N)C(=O)N[C@@H]([C@@H](C)O)C(=O)N3CCC[C@H]3C(=O)N[C@@H](CCCCN)C(=O)N[C@@H](CC(=O)O)C(=O)N[C@H]3CSSC[C@H](NC(=O)[C@H](CCCCN)NC(=O)[C@H](CCCNC(=N)N)NC(=O)[C@H](CC(N)=O)NC1=O)C(=O)N[C@@H](CCCCN)C(=O)N[C@H]1CSSC[C@H](NC(=O)[C@@H]4CCCN4C(=O)[C@H](CC(=O)O)NC(=O)[C@H](C)NC3=O)C(=O)N[C@@H](C)C(=O)N[C@@H](CCCCN)C(=O)N[C@@H](CCC(=O)O)C(=O)N[C@@H]([C@@H](C)O)C(=O)NCC(=O)N[C@@H](CSSC[C@@H](C(N)=O)NC(=O)[C@H](CCCNC(=N)N)NC(=O)[C@H](CC(N)=O)NC1=O)C(=O)N1CCC[C@H]1C(=O)N[C@@H](Cc1ccc(O)cc1)C(=O)NCC(=O)N[C@@H](CCCCN)C(=O)N2 [[^64Cu]Cu-NOTA-HsTX1[R14A], metal not drawn]",biological half-life of the total activity in the rat body,i.v.,45.4 h
same,SUV at 5 min,[1],0.82 ± 0.12 SUV
same,tissue uptake dose at 5 min,[2],0.1 ± 0.02 %ID
same,SUV at 1 h,[3],0.3 ± 0.05 SUV
same,tissue uptake dose at 1 h,[4],0.04 %ID
same,SUV at 4 h,[1],0.23 ± 0.01 SUV
same,tissue uptake dose at 4 h,[2],0.03 %ID
same,SUV at 24 h,[3],0.56 ± 0.1 SUV
same,tissue uptake dose at 24 h,[4],0.08 ± 0.01 %ID
same,SUV at 48 h,[1],0.48 ± 0.05 SUV
same,tissue uptake dose at 48 h,[2],0.07 %ID
same,SUV at 1 h,[5],0.32 ± 0.01 SUV
same,tissue uptake dose at 1 h,[6],0.04 %ID
same,SUV at 4 h,[5],0.21 ± 0.01 SUV
same,tissue uptake dose at 4 h,[6],0.03 %ID
same,SUV at 24 h,[5],0.46 ± 0.01 SUV
same,tissue uptake dose at 24 h,[6],0.08 ± 0.01 %ID
same,SUV at 48 h,[5],0.44 ± 0.02 SUV
same,tissue uptake dose at 48 h,[6],0.06 ± 0.01 %ID
same,SUV at 5 min,[7],1.26 ± 0.48 SUV
same,tissue uptake dose at 5 min,[8],0.03 %ID
same,SUV at 1 h,[9],0.65 ± 0.37 SUV
same,tissue uptake dose at 1 h,[10],0.01 %ID
same,SUV at 4 h,[7],0.39 ± 0.05 SUV
same,tissue uptake dose at 4 h,[8],0.01 %ID
same,SUV at 24 h,[9],0.86 ± 0.11 SUV
same,tissue uptake dose at 24 h,[10],0.02 %ID
same,SUV at 48 h,[7],0.71 ± 0.04 SUV
same,tissue uptake dose at 48 h,[8],0.02 %ID
same,SUV at 1 h,[11],0.4 ± 0.08 SUV
same,tissue uptake dose at 1 h,[12],0.01 %ID
same,SUV at 4 h,[11],0.4 ± 0.02 SUV
same,tissue uptake dose at 4 h,[12],0.01 %ID
same,SUV at 24 h,[11],0.73 ± 0.1 SUV
same,tissue uptake dose at 24 h,[12],0.02 %ID
same,SUV at 48 h,[11],0.55 ± 0.33 SUV
same,tissue uptake dose at 48 h,[12],0.02 ± 0.01 %ID
same,SUV at 5 min,"blood, iv, 0.3 MBq, i.v., n=4, read-out: Blood SUV",1.09 ± 0.62 SUV
same,SUV at 1 h,"blood, iv, 0.3 MBq, i.v., n=8, read-out: Blood SUV",0.7 ± 0.23 SUV
same,SUV at 4 h,[13],0.47 ± 0.21 SUV
same,SUV at 24 h,[13],0.44 ± 0.04 SUV
same,SUV at 48 h,[13],0.3 ± 0.01 SUV
same,SUV at 5 min,[14],0.07 SUV
same,tissue uptake dose at 5 min,[15],0.05 %ID
same,SUV at 1 h,[16],0.05 ± 0.01 SUV
same,tissue uptake dose at 1 h,[17],0.05 ± 0.03 %ID
same,SUV at 4 h,[14],0.03 SUV
same,tissue uptake dose at 4 h,[15],0.05 ± 0.01 %ID
same,SUV at 24 h,[16],0.08 ± 0.01 SUV
same,tissue uptake dose at 24 h,[17],0.08 ± 0.03 %ID
same,SUV at 48 h,[14],0.07 SUV
same,tissue uptake dose at 48 h,[15],0.1 %ID
same,SUV at 1 h,[18],0.04 SUV
same,tissue uptake dose at 1 h,[19],0.06 ± 0.01 %ID
same,SUV at 4 h,[18],0.03 SUV
same,tissue uptake dose at 4 h,[19],0.05 %ID
same,SUV at 24 h,[18],0.06 SUV
same,tissue uptake dose at 24 h,[19],0.1 %ID
same,SUV at 48 h,[18],0.07 SUV
same,tissue uptake dose at 48 h,[19],0.09 %ID
same,tissue uptake dose at 5 min,[20],63.4 ± 6.19 %ID
same,tissue uptake dose at 1 h,[21],28.1 ± 1.55 %ID
same,tissue uptake dose at 4 h,[20],20.1 ± 1.68 %ID
same,tissue uptake dose at 24 h,[21],28.4 ± 3.49 %ID
same,tissue uptake dose at 48 h,[20],21.6 ± 1.04 %ID
same,tissue uptake dose at 1 h,[22],32.9 ± 2.62 %ID
same,tissue uptake dose at 4 h,[22],20.1 ± 1.28 %ID
same,tissue uptake dose at 24 h,[22],28.5 ± 1.49 %ID
same,tissue uptake dose at 48 h,[22],19.7 ± 2.74 %ID
same,SUV at 5 min,[23],3.04 ± 2.13 SUV
same,tissue uptake dose at 5 min,[24],1.32 ± 0.89 %ID
same,SUV at 1 h,[25],1.58 ± 0.58 SUV
same,tissue uptake dose at 1 h,[26],0.8 ± 0.21 %ID
same,SUV at 4 h,[23],0.87 ± 0.04 SUV
same,tissue uptake dose at 4 h,[24],0.55 ± 0.03 %ID
same,SUV at 24 h,[25],0.54 ± 0.06 SUV
same,tissue uptake dose at 24 h,[26],0.3 ± 0.06 %ID
